Results taken from the supplement of paper PMC10567573.

B1: WDR88 (parent)
chain: LLTITKAHSNAISNCCFTFSGHFL
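Also: lentivirally expressed fusions sorted by FACS into six bins by GFP to DsRed ratio, PSI derived from sequencing read proportions per bin multiplied by bin number.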

Variants of: B1
Test: protein stability index of a GFP-peptide fusion (GPS, HEK-293T) (PSI 1-6); higher = more stable
Conditions: c terminus: a fixed tail appended
LLTITKAHSNAISNCQFTFSGHFL [C16Q] showed a protein stability index of 2.41.
Work on LLTITKAHSNAISNCRFTFSGHFL [C16R] yielded a protein stability index of 1.87.
LLTITKAHSNAISNCAFTFSGHFL [C16A] gave a protein stability index of 3.4.
Variant LLTITKAHSNAISNCVFTFSGHFL [C16V] has a protein stability index of 1.95.
Work on LLTITKAHSNAISNCYFTFSGHFL [C16Y] yielded a protein stability index of 2.18.
Variant LLTITKAHSNAISNCDFTFSGHFL [C16D] has a protein stability index of 2.33.
Variant LLTITKAHSNAISNCFFTFSGHFL [C16F] has a protein stability index of 3.35.
Variant LLTITKAHSNAISNCMFTFSGHFL [C16M] has a protein stability index of 3.28.
Work on LLTITKAHSNAISNCTFTFSGHFL [C16T] yielded a protein stability index of 2.9.
Work on LLTITKAHSNAISNCCFCFSGHFL [T18C] yielded a protein stability index of 2.47.
For LLTITKAHSNAISNCCFNFSGHFL [T18N], the protein stability index was 3.85.
With LLTITKAHSNAISNCCFMFSGHFL [T18M] the protein stability index was 2.19.
Work on LLTITKAHSNAISNCCFFFSGHFL [T18F] yielded a protein stability index of 2.9.
Variant LLTITKAHSNAISNCCFAFSGHFL [T18A] has a protein stability index of 3.52.
With LLTITKAHSNAISNCCFIFSGHFL [T18I] the protein stability index was 2.34.
Work on LLTITKAHSNAISNCCFPFSGHFL [T18P] yielded a protein stability index of 2.54.
Variant LLTITKAHSNAISNCCFRFSGHFL [T18R] has a protein stability index of 2.93.
Work on LLTITKAHSNAISNCCFEFSGHFL [T18E] yielded a protein stability index of 1.84.
With LLTITKAHSNAISNCCFLFSGHFL [T18L] the protein stability index was 2.92.
In the case of LLTITKAHSNAISNCCFHFSGHFL [T18H], the protein stability index is reported as 2.53.
Variant LLTITKAHSNAISNCCFDFSGHFL [T18D] has a protein stability index of 2.03.
With LLTITKAHSNAISNCCFKFSGHFL [T18K] the protein stability index was 2.33.
LLTITKAHSNAISNCCFGFSGHFL [T18G] gave a protein stability index of 3.29.
For LLTITKAHSNAILNCCFTFSGHFL [S13L], the protein stability index was 3.23.
Variant LLTITKAHSNAIVNCCFTFSGHFL [S13V] has a protein stability index of 2.2.
For LLTITKAHSNAIYNCCFTFSGHFL [S13Y], the protein stability index was 2.48.
For LLTITKAHSNAIHNCCFTFSGHFL [S13H], the protein stability index was 3.44.
LLTITKAHSNAIRNCCFTFSGHFL [S13R] showed a protein stability index of 2.7.
LLTITKAHSNAIGNCCFTFSGHFL [S13G] showed a protein stability index of 2.7.
LLTITKAHSNAIPNCCFTFSGHFL [S13P] gave a protein stability index of 3.02.
LLTITKAHSNAIENCCFTFSGHFL [S13E] gave a protein stability index of 2.6.
LLTITKAHSNAIANCCFTFSGHFL [S13A] gave a protein stability index of 2.17.
In the case of LLTITKAHSNAINNCCFTFSGHFL [S13N], the protein stability index is reported as 2.6.
With LLTITKAHSNAICNCCFTFSGHFL [S13C] the protein stability index was 2.35.
Work on LLTITKAHSNAIQNCCFTFSGHFL [S13Q] yielded a protein stability index of 3.54.
Variant LLTITKAHSNAIINCCFTFSGHFL [S13I] has a protein stability index of 3.51.
With LLTITKAHSNAIFNCCFTFSGHFL [S13F] the protein stability index was 3.89.
LLTITKAHSNAIWNCCFTFSGHFL [S13W] gave a protein stability index of 3.57.
With LLTITKAHSNAIMNCCFTFSGHFL [S13M] the protein stability index was 3.08.
With LLTITKAHSNAIKNCCFTFSGHFL [S13K] the protein stability index was 2.03.
Work on LLTITKAHSNAIDNCCFTFSGHFL [S13D] yielded a protein stability index of 2.2.
With LLTITKAHSNAITNCCFTFSGHFL [S13T] the protein stability index was 3.02.
Variant LLTITKAHSNAISNACFTFSGHFL [C15A] has a protein stability index of 4.06.
Variant LLTITKAHSNAISNLCFTFSGHFL [C15L] has a protein stability index of 2.27.
LLTITKAHSNAISNGCFTFSGHFL [C15G] showed a protein stability index of 2.42.
Variant LLTITKAHSNAISNWCFTFSGHFL [C15W] has a protein stability index of 2.31.
In the case of LLTITKAHSNAISNPCFTFSGHFL [C15P], the protein stability index is reported as 2.19.
In the case of LLTITKAHSNAISNMCFTFSGHFL [C15M], the protein stability index is reported as 2.19.
LLTITKAHSNAISNNCFTFSGHFL [C15N] gave a protein stability index of 2.98.
Variant LLTITKAHSNAISNICFTFSGHFL [C15I] has a protein stability index of 3.44.
LLTITKAHSNAISNQCFTFSGHFL [C15Q] gave a protein stability index of 3.52.
LLTITKAHSNAISNTCFTFSGHFL [C15T] gave a protein stability index of 3.89.
In the case of LLTITKAHSNAISNSCFTFSGHFL [C15S], the protein stability index is reported as 2.97.
With LLTITKAHSNAISNFCFTFSGHFL [C15F] the protein stability index was 3.46.
Work on LLTITKAHSNAISNDCFTFSGHFL [C15D] yielded a protein stability index of 1.84.
Variant LLTITKAHSNAISNHCFTFSGHFL [C15H] has a protein stability index of 2.78.
For LLTITKAHSNAISNKCFTFSGHFL [C15K], the protein stability index was 2.11.
In the case of LLTITKAHSNAISNYCFTFSGHFL [C15Y], the protein stability index is reported as 2.88.
LLTITKAHSNAISNECFTFSGHFL [C15E] gave a protein stability index of 2.58.
In the case of LLTITKAHSNAISNVCFTFSGHFL [C15V], the protein stability index is reported as 3.3.
Variant LLTITKAHSNAISNRCFTFSGHFL [C15R] has a protein stability index of 3.77.
For LLTITKAHSNCISNCCFTFSGHFL [A11C], the protein stability index was 1.97.
In the case of LLTITKAHSNWISNCCFTFSGHFL [A11W], the protein stability index is reported as 2.7.
Variant LLTITKAHSNQISNCCFTFSGHFL [A11Q] has a protein stability index of 3.19.
Work on LLTITKAHSNMISNCCFTFSGHFL [A11M] yielded a protein stability index of 2.82.
Variant LLTITKAHSNKISNCCFTFSGHFL [A11K] has a protein stability index of 2.66.
With LLTITKAHSNEISNCCFTFSGHFL [A11E] the protein stability index was 3.24.
LLTITKAHSNGISNCCFTFSGHFL [A11G] gave a protein stability index of 3.47.
In the case of LLTITKAHSNSISNCCFTFSGHFL [A11S], the protein stability index is reported as 3.22.
Work on LLTITKAHSNHISNCCFTFSGHFL [A11H] yielded a protein stability index of 2.82.
Variant LLTITKAHSNLISNCCFTFSGHFL [A11L] has a protein stability index of 3.15.
Work on LLTITKAHSNNISNCCFTFSGHFL [A11N] yielded a protein stability index of 3.27.
With LLTITKAHSNPISNCCFTFSGHFL [A11P] the protein stability index was 3.08.
In the case of LLTITKAHSNFISNCCFTFSGHFL [A11F], the protein stability index is reported as 2.93.
With LLTITKAHSNVISNCCFTFSGHFL [A11V] the protein stability index was 2.69.
LLTITKAHSNTISNCCFTFSGHFL [A11T] showed a protein stability index of 3.57.
For LLTITKAHSNDISNCCFTFSGHFL [A11D], the protein stability index was 2.27.
With LLTITKAKSNAISNCCFTFSGHFL [H8K] the protein stability index was 3.13.
In the case of LLTITKALSNAISNCCFTFSGHFL [H8L], the protein stability index is reported as 3.6.
In the case of LLTITKAESNAISNCCFTFSGHFL [H8E], the protein stability index is reported as 2.27.
LLTITKACSNAISNCCFTFSGHFL [H8C] gave a protein stability index of 2.53.
Work on LLTITKAQSNAISNCCFTFSGHFL [H8Q] yielded a protein stability index of 2.24.
LLTITKATSNAISNCCFTFSGHFL [H8T] showed a protein stability index of 2.38.
LLTITKAYSNAISNCCFTFSGHFL [H8Y] showed a protein stability index of 4.38.
Variant LLTITKASSNAISNCCFTFSGHFL [H8S] has a protein stability index of 2.6.
LLTITKAVSNAISNCCFTFSGHFL [H8V] gave a protein stability index of 2.58.
LLTITKANSNAISNCCFTFSGHFL [H8N] gave a protein stability index of 2.03.
LLTITKAISNAISNCCFTFSGHFL [H8I] showed a protein stability index of 2.57.
For LLTITKAPSNAISNCCFTFSGHFL [H8P], the protein stability index was 2.35.
Variant LLTITKADSNAISNCCFTFSGHFL [H8D] has a protein stability index of 3.88.
Work on LLTITKAGSNAISNCCFTFSGHFL [H8G] yielded a protein stability index of 3.56.
In the case of LLTITKAWSNAISNCCFTFSGHFL [H8W], the protein stability index is reported as 2.17.
For LLTITKARSNAISNCCFTFSGHFL [H8R], the protein stability index was 3.29.
In the case of LLTITKAFSNAISNCCFTFSGHFL [H8F], the protein stability index is reported as 2.59.
